The chains are these.
B1: LINE1-mini (parent)
chain: GGCAGAGCUCAACACAGCGUGGCAAAGUGGCUGUGGCUAGACUGCC

The variants in the data set derive from B1. Nature of the data set: self-cleavage, relative activity (ratio to wild type); higher = more cleavage; in vitro, sequencing; the parent is a self-cleaving ribozyme.
Consider A41U U43A, for which the self-cleavage worked out at 0.17.
The result for A41U U43G reads 0.17; that for A41U U43C, 0.09; that for G44U, 0.32.
In the case of G44C, the self-cleavage is 0.36.
Consider G44A, for which the self-cleavage came out at 0.44.
The result for U43A C46G reads 0.14; that for U43A C46U, 0.13.
For the variant U43A C46A, the self-cleavage came out at 0.1.
As to U43A C45A, the self-cleavage worked out at 0.08.
U43A C45U: the self-cleavage was 0.16.
With U43A C45G, the self-cleavage is 0.08.
As for C45G, the figure is 0.39.
For the variant C45A, the self-cleavage amounted to 0.64.
As for C45U, the self-cleavage was 1.43.
As to G44A C45A, the self-cleavage came out at 0.07.
As for G44A C45G, the figure is 0.2; as for G44A C45U, 0.1.
Take G44U C46A: the self-cleavage worked out at 0.08.
On to G44U C46G, for which the self-cleavage worked out at 0.08.
Regarding G44U C46U, the self-cleavage was 0.12.
As for A41U C46A, the figure is 0.33; as for A41U C46U, 0.9; as for A41U C46G, 0.57.
As for U43G G44A, the figure is 0.37.
The result for U43G G44U reads 0.25; that for U43G G44C, 0.32.
As to G44C C45G, the self-cleavage is 0.21.
The result for G44C C45U reads 0.06; that for G44C C45A, 0.05; that for C42A C46U, 0.19.
Consider C42A C46G, for which the self-cleavage amounted to 0.07.
As for C42A C46A, the self-cleavage came out at 0.2.
As for C42G C46U, the self-cleavage stood at 0.09.
For C42G C46G, the self-cleavage was determined as 0.04.
As for C42G C46A, the figure is 0.04.
Take U43G C46U: the self-cleavage is 0.28.
The result for U43G C46A reads 0.18.
As to U43G C46G, the self-cleavage came to 0.32.
For U43G C45U, the self-cleavage amounted to 0.19.
For the variant U43G C45A, the self-cleavage was found to be 0.32.
As for U43G C45G, the figure is 0.09.
C42U U43A: the self-cleavage worked out at 0.12.
The result for C42U U43C reads 0.11; that for C42U U43G, 0.15; that for U43C G44A, 0.11.
The result for U43C G44U reads 0.09; that for U43C G44C, 0.08; that for C42A C45U, 0.13.
On to C42A C45G, for which the self-cleavage came out at 0.21.
As for C42A C45A, the figure is 0.09.
The result for U43G reads 0.12.
As for U43A, the figure is 0.11; as for U43C, 0.14; as for G44C C46A, 0.1.
For G44C C46G, the self-cleavage is 0.08.
As for G44C C46U, the self-cleavage was determined as 0.14.
The result for C45G C46A reads 0.21.
Take C45G C46G: the self-cleavage worked out at 0.53.
The result for C45G C46U reads 0.66; that for U43A G44A, 0.1; that for U43A G44U, 0.18.
The result for U43A G44C reads 0.1; that for C42U C45G, 0.09.
As for C42U C45U, the figure is 0.26; as for C42U C45A, 0.14.
As for C42G, the self-cleavage was determined as 0.07.
As for C42A, the figure is 0.17; as for C42U, 0.35.
The result for C42G U43C reads 0.03; that for C42G U43G, 0.06; that for C42G U43A, 0.06.
For C46U, the self-cleavage was 1.03.
On to C46G, for which the self-cleavage turned out to be 0.99.
The result for C46A reads 0.9; that for C42G C45U, 0.05; that for C42G C45G, 0.09.
On to C42G C45A, for which the self-cleavage was 0.04.
Consider A41U G44U, for which the self-cleavage was found to be 0.16.
As for A41U G44A, the self-cleavage stood at 0.31.
With A41U G44C, the self-cleavage came to 0.49.
C45U C46G: the self-cleavage stood at 0.39.
As for C45U C46U, the figure is 1.03.
For C45U C46A, the self-cleavage stood at 0.63.
On to G44U C45U, for which the self-cleavage worked out at 0.14.
The result for G44U C45A reads 0.11.
Regarding G44U C45G, the self-cleavage was 0.17.
As to C42U C46G, the self-cleavage worked out at 0.19.
On to C42U C46U, for which the self-cleavage was 0.24.
As for C42U C46A, the figure is 0.16; as for U43C C45U, 0.13; as for U43C C45G, 0.1.
As for U43C C45A, the figure is 0.08.
Consider C42U G44U, for which the self-cleavage came to 0.1.
In the case of C42U G44C, the self-cleavage was determined as 0.13.
C42U G44A: the self-cleavage was 0.16.
The result for C42A U43A reads 0.15.
In the case of C42A U43G, the self-cleavage came to 0.07.
Consider C42A U43C, for which the self-cleavage came out at 0.09.
With U43C C46U, the self-cleavage amounted to 0.1.
As for U43C C46A, the figure is 0.11; as for U43C C46G, 0.12; as for G44A C46A, 0.08.
As for G44A C46U, the self-cleavage came out at 0.16.
As to G44A C46G, the self-cleavage came to 0.12.
As for C42G G44A, the figure is 0.12; as for C42G G44U, 0.06.
As for C42G G44C, the figure is 0.06.
The result for A41U C45U reads 0.55; that for C42A G44A, 0.25.
Regarding C42A G44C, the self-cleavage is 0.12.
The result for C42A G44U reads 0.11; that for C45A C46G, 0.36.
For C45A C46A, the self-cleavage was 0.24.
Turning to C45A C46U, the self-cleavage was 0.4.
